Among the data in publication PMC9482650, “Quantitative fragmentomics allow affinity mapping of interactomes” (Nature Communications, 2022) are pKd values, retold here.

T1: NHERF3_1, Q5T2W1
T1 sequence (Q5T2W1 4-100, limits assumed, looked up): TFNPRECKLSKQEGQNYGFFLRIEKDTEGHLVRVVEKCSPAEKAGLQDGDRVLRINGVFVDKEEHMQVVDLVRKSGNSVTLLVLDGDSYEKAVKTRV

T2: PDZRN3_1, Q9UPQ7
T2 sequence (Q9UPQ7 244-349, limits assumed, looked up): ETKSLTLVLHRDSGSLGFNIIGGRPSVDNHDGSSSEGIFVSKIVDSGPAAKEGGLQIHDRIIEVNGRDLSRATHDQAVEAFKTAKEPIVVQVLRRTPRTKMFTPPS

T3: MPDZ_12, O75970
T3 sequence (O75970 1857-1958, limits assumed, looked up): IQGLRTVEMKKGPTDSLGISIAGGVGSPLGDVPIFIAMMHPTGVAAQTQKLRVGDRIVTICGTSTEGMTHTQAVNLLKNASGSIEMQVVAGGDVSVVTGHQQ

T4: NHERF3_4, Q5T2W1
T4 sequence (Q5T2W1 373-468, limits assumed, looked up): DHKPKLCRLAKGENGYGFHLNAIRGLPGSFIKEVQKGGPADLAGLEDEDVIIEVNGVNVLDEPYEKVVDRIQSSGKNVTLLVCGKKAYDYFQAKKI

T5: MPDZ_5, O75970
T5 sequence (O75970 695-796, limits assumed, looked up): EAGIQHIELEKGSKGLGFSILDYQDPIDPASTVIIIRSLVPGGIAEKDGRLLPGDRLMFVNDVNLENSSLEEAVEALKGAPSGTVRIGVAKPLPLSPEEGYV

T6: ARHGAP21, Q5T5U3
T6 sequence (Q5T5U3 45-169, limits assumed, looked up): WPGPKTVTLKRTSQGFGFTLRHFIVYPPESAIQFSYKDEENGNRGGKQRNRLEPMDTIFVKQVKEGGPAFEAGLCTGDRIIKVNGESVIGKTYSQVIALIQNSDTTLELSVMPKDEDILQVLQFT

T7: MPDZ_10, O75970
T7 sequence (O75970 1624-1722, limits assumed, looked up): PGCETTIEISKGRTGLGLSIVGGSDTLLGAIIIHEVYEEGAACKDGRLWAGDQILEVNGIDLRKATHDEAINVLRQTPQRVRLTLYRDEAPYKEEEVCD

T8: APBA2_2, Q99767
T8 sequence (Q99767 654-744, limits assumed, looked up): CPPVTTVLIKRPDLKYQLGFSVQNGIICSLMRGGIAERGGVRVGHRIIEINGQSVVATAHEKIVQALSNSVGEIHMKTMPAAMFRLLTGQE

T9: DFNB31_2, Q9P202
T9 sequence (Q9P202 274-371, limits assumed, looked up): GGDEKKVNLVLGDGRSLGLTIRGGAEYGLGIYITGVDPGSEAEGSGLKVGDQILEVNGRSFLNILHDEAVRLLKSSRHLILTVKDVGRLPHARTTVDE

T10: LIN7A, O14910
T10 sequence (O14910 103-200, limits assumed, looked up): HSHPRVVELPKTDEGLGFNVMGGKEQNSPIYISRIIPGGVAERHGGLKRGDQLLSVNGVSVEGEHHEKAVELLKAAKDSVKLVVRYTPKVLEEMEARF

T11: DLG3_1, Q92796
T11 sequence (Q92796 125-227, limits assumed, looked up): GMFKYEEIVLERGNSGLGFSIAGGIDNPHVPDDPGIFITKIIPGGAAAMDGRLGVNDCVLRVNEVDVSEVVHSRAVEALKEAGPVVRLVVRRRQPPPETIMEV

T12: LRRC7, Q96NW7
T12 sequence (Q96NW7 1440-1537, limits assumed, looked up): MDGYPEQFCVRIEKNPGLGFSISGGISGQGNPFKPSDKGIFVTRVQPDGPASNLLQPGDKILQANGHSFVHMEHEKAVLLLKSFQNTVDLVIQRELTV

T13: TX1BP3, O14907
T13 sequence (O14907 10-122, limits assumed, looked up): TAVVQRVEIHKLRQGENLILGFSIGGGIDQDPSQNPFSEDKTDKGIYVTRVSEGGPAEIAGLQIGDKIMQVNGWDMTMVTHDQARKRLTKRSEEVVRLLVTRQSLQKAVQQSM

B1: ACTN2, P35609 (peptide)
chain: SSALYGESDL
B2: ASNSD1, Q9NWL6 (peptide)
chain: NLSIEKETKL

DLG1_2, Q12959, sequence (Q12959 314-412): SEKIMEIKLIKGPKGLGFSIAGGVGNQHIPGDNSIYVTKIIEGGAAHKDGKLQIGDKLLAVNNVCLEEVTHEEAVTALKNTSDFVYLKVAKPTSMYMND
IL16_3, Q14005, sequence (Q14005 1107-1207): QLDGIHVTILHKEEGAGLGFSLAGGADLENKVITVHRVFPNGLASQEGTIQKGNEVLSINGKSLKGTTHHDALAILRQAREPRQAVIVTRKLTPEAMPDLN
MAGI2_5, Q86UL8, sequence (Q86UL8 915-1017): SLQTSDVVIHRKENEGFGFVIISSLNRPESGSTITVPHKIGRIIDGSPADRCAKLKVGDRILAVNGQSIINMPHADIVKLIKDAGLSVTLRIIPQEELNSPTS

One assay concerns the target T1, NHERF3_1, Q5T2W1. As to the kind of experiment: holdup assay. Set-up: key: below the threshold = too weak to quantify, mostly under pKd 3.1 to 4. Particulars: plain residues with an end cap or a label only (N-terminal biotin on a linker: ado-ado).
By pKd is commonly meant the Kd on a negative log10 scale, so that one unit is a factor of ten. On to B1, for which the pKd was found to be 3.57.

As for B2, the pKd worked out at 6.04.

In the next assay the target is PTPN3, P26045. As to the kind of experiment: holdup assay. Particulars: plain residues with an end cap or a label only (N-terminal biotin on a linker: ado-ado). Set-up: key: below the threshold = too weak to quantify, mostly under pKd 3.1 to 4.
PTPN3, P26045, sequence (P26045 505-587): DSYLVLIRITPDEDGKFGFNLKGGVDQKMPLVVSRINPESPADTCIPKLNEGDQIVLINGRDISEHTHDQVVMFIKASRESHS
Consider B1, for which the negative logarithm of the Kd (pKd) came out at 4.45.

B2 had a pKd of 5.21.

The target in a further assay is PICK1, Q9NRD5. As to the kind of experiment: holdup assay. Set-up: key: below the threshold = too weak to quantify, mostly under pKd 3.1 to 4. Particulars: plain residues with an end cap or a label only (N-terminal biotin on a linker: ado-ado).
PICK1, Q9NRD5, sequence (Q9NRD5 17-115): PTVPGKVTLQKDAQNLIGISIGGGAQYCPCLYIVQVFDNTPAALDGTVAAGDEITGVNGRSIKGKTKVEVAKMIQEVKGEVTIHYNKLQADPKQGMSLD
Turning to B1, the pKd entry is listed as “below the threshold”.

In the case of B2, the pKd came out at 3.95.

A further assay has as its target DLG2_3, Q15700. As to the kind of experiment: holdup assay. Set-up: key: below the threshold = too weak to quantify, mostly under pKd 3.1 to 4. Particulars: plain residues with an end cap or a label only (N-terminal biotin on a linker: ado-ado).
For the molecule B1, the pKd was 3.94.

Molecule B2 showed a pKd of 3.77.

Another assay has as its target T2, PDZRN3_1, Q9UPQ7. Nature of the assay: holdup assay. Set-up: key: below the threshold = too weak to quantify, mostly under pKd 3.1 to 4. Particulars: plain residues with an end cap or a label only (N-terminal biotin on a linker: ado-ado).
Consider B1, for which the pKd result is reported as “below the threshold”.

With B2, the pKd stood at 4.67.

Another assay deals with NOS1, P29475. Nature of the assay: holdup assay. Set-up: key: below the threshold = too weak to quantify, mostly under pKd 3.1 to 4. Particulars: plain residues with an end cap or a label only (N-terminal biotin on a linker: ado-ado).
NOS1, P29475, sequence (P29475 9-101): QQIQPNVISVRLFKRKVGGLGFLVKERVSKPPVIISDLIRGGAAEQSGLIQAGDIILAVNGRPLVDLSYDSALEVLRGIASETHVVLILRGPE
Consider B1, for which the pKd result was “below the threshold”.

On to B2, for which the pKd entry was “below the threshold”.

A further assay deals with TJP1_2, Q07157. As to the kind of experiment: holdup assay. Particulars: plain residues with an end cap or a label only (N-terminal biotin on a linker: ado-ado). Set-up: key: below the threshold = too weak to quantify, mostly under pKd 3.1 to 4.
TJP1_2, Q07157, sequence (Q07157 181-274): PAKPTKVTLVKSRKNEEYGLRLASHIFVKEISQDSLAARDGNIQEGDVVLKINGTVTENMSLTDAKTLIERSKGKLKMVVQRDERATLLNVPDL
On to B1, for which the pKd entry was “below the threshold”.

Turning to B2, the pKd result is “below the threshold”.

The target in a further assay is T3, MPDZ_12, O75970. As to the kind of experiment: holdup assay. Set-up: key: below the threshold = too weak to quantify, mostly under pKd 3.1 to 4. Particulars: plain residues with an end cap or a label only (N-terminal biotin on a linker: ado-ado).
On to B1, for which the pKd result is recorded as “below the threshold”.

Molecule B2 displayed a pKd of 3.56.

In another assay the target is T4, NHERF3_4, Q5T2W1. Nature of the assay: holdup assay. Set-up: key: below the threshold = too weak to quantify, mostly under pKd 3.1 to 4. Particulars: plain residues with an end cap or a label only (N-terminal biotin on a linker: ado-ado).
Take B1: the pKd entry was “below the threshold”.

B2: the pKd was found to be 4.13.

The next assay has as its target T5, MPDZ_5, O75970. Nature of the assay: holdup assay. Set-up: key: below the threshold = too weak to quantify, mostly under pKd 3.1 to 4. Particulars: plain residues with an end cap or a label only (N-terminal biotin on a linker: ado-ado).
As for B1, the pKd result is given as “below the threshold”.

In the case of B2, the pKd entry was “below the threshold”.

A further assay has as its target T6, ARHGAP21, Q5T5U3. As to the kind of experiment: holdup assay. Set-up: key: below the threshold = too weak to quantify, mostly under pKd 3.1 to 4. Particulars: plain residues with an end cap or a label only (N-terminal biotin on a linker: ado-ado).
B1: the pKd result is given as “below the threshold”.

For B2, the pKd result was “below the threshold”.

Another assay has as its target DLG1_2, Q12959. As to the kind of experiment: holdup assay. Set-up: key: below the threshold = too weak to quantify, mostly under pKd 3.1 to 4. Particulars: plain residues with an end cap or a label only (N-terminal biotin on a linker: ado-ado).
With B1, the pKd result is “below the threshold”.

The molecule B2 gave a pKd of 3.93.

The target in the next assay is HTRA1, Q92743. Nature of the assay: holdup assay. Set-up: key: below the threshold = too weak to quantify, mostly under pKd 3.1 to 4. Particulars: plain residues with an end cap or a label only (N-terminal biotin on a linker: ado-ado).
HTRA1, Q92743, sequence (Q92743 360-477): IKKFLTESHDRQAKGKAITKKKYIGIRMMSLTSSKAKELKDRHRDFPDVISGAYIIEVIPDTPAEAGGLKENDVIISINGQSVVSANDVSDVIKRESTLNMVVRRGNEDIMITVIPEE
On to B1, for which the pKd result is reported as “below the threshold”.

As to B2, the pKd entry is “below the threshold”.

In the next assay the target is T7, MPDZ_10, O75970. Nature of the assay: holdup assay. Set-up: key: below the threshold = too weak to quantify, mostly under pKd 3.1 to 4. Particulars: plain residues with an end cap or a label only (N-terminal biotin on a linker: ado-ado).
B1: the pKd result is listed as “below the threshold”.

In the case of B2, the pKd result is reported as “below the threshold”.

Another assay deals with MAST1, Q9Y2H9. As to the kind of experiment: holdup assay. Set-up: key: below the threshold = too weak to quantify, mostly under pKd 3.1 to 4. Particulars: plain residues with an end cap or a label only (N-terminal biotin on a linker: ado-ado).
MAST1, Q9Y2H9, sequence (Q9Y2H9 962-1065): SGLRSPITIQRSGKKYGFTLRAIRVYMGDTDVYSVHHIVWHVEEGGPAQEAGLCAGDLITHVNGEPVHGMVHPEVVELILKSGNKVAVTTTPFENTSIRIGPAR
Regarding B1, the pKd was 4.18.

In the case of B2, the pKd was 4.73.

A further assay has as its target T8, APBA2_2, Q99767. As to the kind of experiment: holdup assay. Set-up: key: below the threshold = too weak to quantify, mostly under pKd 3.1 to 4. Particulars: plain residues with an end cap or a label only (N-terminal biotin on a linker: ado-ado).
In the case of B1, the pKd was found to be 3.47.

As for B2, the pKd result is given as “below the threshold”.

The target in the next assay is T9, DFNB31_2, Q9P202. Nature of the assay: holdup assay. Set-up: key: below the threshold = too weak to quantify, mostly under pKd 3.1 to 4. Particulars: plain residues with an end cap or a label only (N-terminal biotin on a linker: ado-ado).
Turning to B1, the pKd result is listed as “below the threshold”.

For B2, the pKd amounted to 3.94.

The next assay has as its target T10, LIN7A, O14910. As to the kind of experiment: holdup assay. Particulars: plain residues with an end cap or a label only (N-terminal biotin on a linker: ado-ado). Set-up: key: below the threshold = too weak to quantify, mostly under pKd 3.1 to 4.
Take B1: the pKd result was “below the threshold”.

Take B2: the pKd entry is “below the threshold”.

The next assay addresses T11, DLG3_1, Q92796. As to the kind of experiment: holdup assay. Set-up: key: below the threshold = too weak to quantify, mostly under pKd 3.1 to 4. Particulars: plain residues with an end cap or a label only (N-terminal biotin on a linker: ado-ado).
For B1, the pKd result is listed as “below the threshold”.

Consider B2, for which the pKd result is on record as “below the threshold”.

The target in another assay is T12, LRRC7, Q96NW7. Nature of the assay: holdup assay. Particulars: plain residues with an end cap or a label only (N-terminal biotin on a linker: ado-ado). Set-up: key: below the threshold = too weak to quantify, mostly under pKd 3.1 to 4.
Molecule B1 showed a negative-log Kd (pKd) of 3.86.

B2: the pKd entry was “below the threshold”.

The target of the next assay is T13, TX1BP3, O14907. Nature of the assay: holdup assay. Set-up: key: below the threshold = too weak to quantify, mostly under pKd 3.1 to 4. Particulars: plain residues with an end cap or a label only (N-terminal biotin on a linker: ado-ado).
Consider B1, for which the pKd was determined as 4.9.

On to B2, for which the pKd was found to be 3.53.

The target in a further assay is DLG2_2, Q15700. Nature of the assay: holdup assay. Set-up: key: below the threshold = too weak to quantify, mostly under pKd 3.1 to 4. Particulars: plain residues with an end cap or a label only (N-terminal biotin on a linker: ado-ado).
Turning to B1, the pKd came out at 3.52.

B2 yielded a pKd of 3.5.

Another assay has as its target IL16_3, Q14005. As to the kind of experiment: holdup assay. Particulars: plain residues with an end cap or a label only (N-terminal biotin on a linker: ado-ado). Set-up: key: below the threshold = too weak to quantify, mostly under pKd 3.1 to 4.
B1: the pKd result was “below the threshold”.

As for B2, the pKd entry is listed as “below the threshold”.

A further assay concerns the target MAGI2_5, Q86UL8. As to the kind of experiment: holdup assay. Set-up: key: below the threshold = too weak to quantify, mostly under pKd 3.1 to 4. Particulars: plain residues with an end cap or a label only (N-terminal biotin on a linker: ado-ado).
For B1, the pKd result is on record as “below the threshold”.

As for B2, the pKd result is “below the threshold”.
